# Results published in US20250026813A1 (published 2025).
# Tests used:
# [1] = target: T1, S2 subunit of the SARS-CoV-2 spike protein (Sino Biological 40590-V08B), His tag (SARS-CoV-2, UniProt P0DTC2 686-1213)
# T1 construct: domain: S2 subunit
# [2] = target: SARS-CoV-2 spike protein receptor binding domain (isolated RBD) (SARS-CoV-2, UniProt P0DTC2 319-541)
Binder,HTRF deltaF [1] [deltaF],Kd [2] [nM],koff [2] [s⁻¹],kon [2] [M⁻¹ s⁻¹]
"IMPI-029 (antibody, V domains shown) VH: EVQLVESGGGLIQPGGSLRLSCAASGVTVSSNYMNWVRQAPGKGLEWVSVIYSGGSTYYADSVKGRFTISRDNSKNTLFLQMNSLRAEDSAVYYCARDLGPYGVDVWGQGTTVTVSS VL: DIQLTQSPSFLSASVGDRVTITCWASQGISSYLAWYQQKPGKAPKLLIYAASTLQSGVPSRFSGSGSGTEFTLTISSLQPEDFATYYCQELNSYPLTFGQGTRLEIK [IMPI-029, listing 1 of 2 here]",4.1,–,–,–
"IMPI-037 (antibody, V domains shown) VH: not shown VL: DIQLTQSPSFLSASVGDRVTITCWASQGINSYLAWYQQKPGKAPKLLIYAASTLQSGVPSRFSGSGSGTEFTLTISSLQPEDFTTYYCQQFNDYPRTFGPGTKVEIK",–,9.28,0.0232,2.5e+06
"IMPI-017 (antibody, V domains shown) VH: EVQLVESGGGLIQPGGSLRLSCAAAGLTVSSNYMNWVRQVPGKGLEWVSVIYSGGSTYYADSVKGRFTISRDNSKNTLYLQMNSLRAEDTAVYYCARDLGTLGMDVWGQGTTVTVSS VL: DIQLTQSPSFLSASVGDRVTITCWASQGISTYLAWYQQKPGKAPKLLIYAASTLQSGVPSRFSGSGSGTEFTLTISSLQPEDFATYYCQQLNSYLPTFGQGTKVEIK",–,1.87,0.000976,522000
"IMPI-047 (antibody, V domains shown) VH: EVQLVESGGGLIQPGGSLRLSCAASGFTVSSNYMNWVRQAPGKGLEWVSVIYSGGSTYYADSVKGRFTISRDNSKNTLYLQMNSLRTEDTAVYYCARDLVAYGMDVWGQGTTVTVSS VL: DIQLTQSPSFLSASVGDRVTITCWASQGISSYLAWYQQKPGKAPKVLIYAASTLQSGVPSRFSGSGSGTEFTLTISSLQPEDFATYYCQLLNSNPLTFGGGTKVEIK",–,2.38,0.000878,368000
"IMPI-029 (antibody, V domains shown) VH: EVQLVESGGGLIQPGGSLRLSCAASGVTVSSNYMNWVRQAPGKGLEWVSVIYSGGSTYYADSVKGRFTISRDNSKNTLFLQMNSLRAEDSAVYYCARDLGPYGVDVWGQGTTVTVSS VL: DIQLTQSPSFLSASVGDRVTITCWASQGISSYLAWYQQKPGKAPKLLIYAASTLQSGVPSRFSGSGSGTEFTLTISSLQPEDFATYYCQELNSYPLTFGQGTRLEIK [IMPI-029, listing 2 of 2 here]",–,0.195,0.000157,808000
"IMPI-060 (antibody, V domains shown) VH: EVQLVESGGGLIQPGGSLRLSCAASGVTVSSNYMSWVRQAPGKGLEWVSVIYSGGSTFYADSVKGRFTISRDNSKNTLYLQMNSLRAEDTAVYYCARDLSYYGMDVWGQGTTVTVSS VL: DIQLTQSPSFLSASVGDRVTITCWASQGISSYLAWYQQKPGKAPKLLIYAASTLQSGVPSKFSGSGSGTEFTLTISSLQPEDFATYYCQQLNSYPSSFGQGTKLEIK",–,59.2,0.0277,469000
"IMPI-021 (antibody, V domains shown) VH: EVQLVESGGGLIQPGGSLRLSCAASGVTVSSNYMSWVRQAPGKGLEWVSVIYSGGSTFYADSVKGRFTISRDNSKNTLYLQMNSLRAEDTAVYYCARDLSYYGMDVWGQGTTVTVSS VL: DIQLTQSPSFLSASVGDRVTITCWASQGISSYLAWYQQKPGKAPKLLIYAASTLQSGVPSKFSGSGSGTEFTLTISSLQPEDFATYYCQQLNSYPCSFGQGTKLEIK",–,8.08,0.00443,548000
"IMPI-005 (antibody, V domains shown) VH: EVQLVESGGGLIQPGGSLRLSCAASGFTVSSNYMNWVRQAPGKGLEWVSVIYSGGSTYYADSVKGRFTISRDNSKNTLFLQMNSLRAEDSAVYYCARDLGPYGVDVWGQGTTVTVSS VL: DIQLTQSPSFLSASVGDRVTITCWASQGISSYLAWYQQKPGKAPKLLIYAASTLQSGVPSRFSGSGSGTEFTLTISSLQPEDFATYYCQELNSYPLTFGQGTRLEIK",–,3.09,0.0071,2.3e+06
"IMPI-056 (antibody, V domains shown) VH: EVQLVESGGGLIQPGGSLRLSCAASGLTVSSNYMNWVRQAPGKKLEWVSVIYSGGSTFYADSVRGRFTISRDNSKNTLFLQMNSLRAEDSAVYYCARDLGPYGVDVWGQGTTVTVSS VL: DIQLTQSPSFLSASVGDRVTITCWASQGISSYLAWYQQKPGKAPKLLIYAASTLQSGVPSRFSGSGSGTEFTLTISSLQPEDFATYYCQQLNSYPLTFGQGTRLEIK",–,0.44,–,–
"IMPI-038 (antibody, V domains shown) VH: QVQLVESGGGVVQPGRSLRLSCAASGFTFSSYGMHWVRQAPGKGLEWVAVISYDGSDKYYADSVKGRFTISRDNSKNTLYLQMNSLRAEDTAVYYCAKTVAGYYYYYYGMDVWGQGTTVTVSS VL: DIQMTQSPSSVSASVGDRVTVTCRASQDISSWLAWFQQKPGKAPKFLIYDASNLENGVPSRFSGSGSGTDFTLTISSLQPEDFATYYCQQAKSFPWTFGQGTKVEIN",–,2.92,–,–
"IMPI-024 (antibody, V domains shown) VH: EVQLVQSGAEVKKPGESLKISCKGSGYSFTSYWIGWVRQMPGKGLEWMGIIYPGDSDTRYSPSFQGQVTISADKSISTAYLQWSSLKASDTAMYYCVRSYNWNYFDYWGQGTLVTVSS VL: AIQLTQSPSSLSASVGDRVTITCRASQGISSGLAWYQQKAGKAPKLLIYDVSSLESGVPSRFSGSGSGTDFTLTISSLQPEDFATYYCQQFLSYPWTFGQGTKVEIK [IMPI-024, listing 1 of 2 here]",-15.4,–,–,–
"IMPI-068 (antibody, V domains shown) VH: QVQLVESGGDVVQPGRSLRLSCAASGFTFSRYGMHWVRQAPGKGLEWVAVISYDGSDKYYADSVKGRFTISRDNSKNTLYLQMNSLRAEDTAVYYCAKQLPLYYYYYGMDVWGQGTTVTVSS VL: AIQLTQSPSSLSASVGDRVTITCRASQGISSALAWYQQKPGKAPNLLIYDASSLESGVPSRFSGSGSGTDFTLTISSLQPEDFATYYCQQFNIYPHTFGPGTKVDIK",–,40.5,–,–
"IMPI-027 (antibody, V domains shown) VH: QVQLQESGPGLVKPSQTLSLTCTVSGGSISSYGYYWNWIRQHPGKGLEWIGYIYYSGSTYYNPSLKSRVTISVDTSKNQLSLRLNSVSAADTAVYYCARDFGGNSNYFDYWGQGTLVTVSS VL: AIQLTQSPSSLSASVGDRVTITCRTSQGISSALAWYQQKPGKAPKLLIYDASSLESGVPSRFSGSGSGTDFTLTISSLQPEDFATYYCQQFNSYPLTFGGGTKVEIK",–,4.06,26.3,6.48e+09
"IMPI-024 (antibody, V domains shown) VH: EVQLVQSGAEVKKPGESLKISCKGSGYSFTSYWIGWVRQMPGKGLEWMGIIYPGDSDTRYSPSFQGQVTISADKSISTAYLQWSSLKASDTAMYYCVRSYNWNYFDYWGQGTLVTVSS VL: AIQLTQSPSSLSASVGDRVTITCRASQGISSGLAWYQQKAGKAPKLLIYDVSSLESGVPSRFSGSGSGTDFTLTISSLQPEDFATYYCQQFLSYPWTFGQGTKVEIK [IMPI-024, listing 2 of 2 here]",–,0.633,0.00134,2.12e+06
"IMPI-033 (antibody, V domains shown) VH: QVQLQESGPGLVKPSQTLSLTCTVSGGSISSYGYYWSWIRQHPGKGLEWIGYIYYSGSTYYNPSLKSRVTMSVDTSKNQLSLRLNSVSAADTAVYYCARDFGGNSNYFDYWGQGTLVTVSS VL: AIQLTQSPSSLSASVGDRVTITCRASQGISSALAWYQQKPGKAPNLLIYDASSLESGVPSRFSGSGSGTDFTLTISSLQPEDFATYYCQQFNSSPLTFGGGTKVEIK",–,3.37,0.00741,2.2e+06
"IMPI-059 (antibody, V domains shown) VH: EVQLVESGGGLIQPGGSLRLSCAASGFTVSSIYMSWVRQAPGKGLEWVSIIYSRGSTDYADSVKGRFTISRDISKNTLYLQMNSLRAEDTAVYYCARDGTMVRGVHAFDIWGQGTMVTVSS VL: DIQMTQSPPSLSASIGDRVTITCQASQDISNYLNWYQQKPGKAPKLLIYDASNLETGVPSRFSGSGSGTDFTLTISNLQPEDIVTYYCQQYDNLPSSFGQGTKLEIK",–,0.646,0.00426,6.59e+06
"IMPI-006 (antibody, V domains shown) VH: QLQLQESGPGLVKPSETLSLTCTVSGGSISNSNYYWGWIRQPPGKGLEWIGSIYYSGRTYYNPSLKSRVTISVDTSKNQFSLKLSSVTAADTAVYYCARMGLLWFGEFYGMDVWGQGTTVTVSS VL: DIQMTQSPSSLSASVGDRVTITCRASQGISSWLAWYQQKPEKAPKSLIYDASSLQRGVPSRFSGSGSGTDFTLTISSLQPEDFASYYCQQYNSYPLTFGGGTRVEIK",–,0.88,8.19,9.3e+09
"IMPI-055 (antibody, V domains shown) VH: QVQLVQSGAEVKKPGASVKVSCKASGYTFTSYDINWVRQATGQGLEWMGWMNPNSGNTGYAQKFQGRVTMTRDTSINTAYMELSSLRSEDTAVYFCARGGRYCSDVTCYSGEPFDYWGQGTLVTVSS VL: EIMLTQSPDFQSVTPKEKVTITCRASQSIGSSLHWYQQKPDQSPKLLIKFASQSISGVPSRFSGSGSGTDFTLTINSLEAEDAAAYYCHQSSSLPHTFGPGTKVEIK",–,0.959,0.00264,2.75e+06
"IMPI-054 (antibody, V domains shown) VH: EVQLVESGGGLIQPGGSLRLSCAASGLTVSSNYMSWVRQAPGKGLEWVSIIYSGGSTYYADSVKGRFTISRDNSKNTLYLQMNSLRAEDTAVYYCARLGGYYYYGMDVWGQGTTVTVSS VL: DIQMTQSPSSLSASVGERVTITCQASQDIRNYLNWYQKKPGKAPKLLIYDSSNLETGVPSRFSGSGSGTDFTFTISSLQPEDIATYYCQQYDNLPITFGQGTRLEIK",–,1.11,0.000627,564000
"IMPI-042 (antibody, V domains shown) VH: EVQLVESGGGLIQPGGSLRLSCAASGLTVSSNYMSWVRQAPGKGLEWVSIIYSGGSTYYADSVKGRFTISRDNSKNTLYLQMNSLRAEDTAVYYCARLGGYYYYGMDVWGQGTTVTVSS VL: DIQMTQSPSSLSASVGERVTITCQASQDIRNYLNWYQKKPGKAPKLLIYDSSNLETGVPSRFSGGGSGTDFTFTISSLQPEDIATYYCQQYDNLPITFGQGTRLEIK",–,1.15,0.000617,536000
